Values belong to the substance of their own block, whether it stands above or below them.
Columns and labels:
[1] = biological target: human Delta-like ligand 4 (DLL4), full-length, expressed on CHO cells (human) (UniProt Q9NR61); experiment: cell-based or functional assay
[2] = biological target: rHuman P-Cadherin/Fc Chimera, CF (R&D Systems Cat#861-PC) (human) (UniProt P22223); experiment: ECL multispot (MSD) binding assay, antigens spotted on plate, 20 nM Fab
[3] = biological target: rHuman CD44/Fc Chimera, CF (R&D Systems Cat#3660-CD) (human) (UniProt P16070); experiment: MSD Multispot ECL, antigen spotted on plate, Fab in solution; blank spot of the row 240
[4] = biological target: rHuman IGF-1 sR, (IGF-1 sR), CF (R&D Systems Cat#391-GR) (human) (UniProt P08069); experiment: as above
[5] = biological target: rHuman ErbB2/Fc Chimera, CF (R&D Systems Cat#1129-ER) (human) (UniProt P04626); experiment: as above
[6] = biological target: human DLL4, full-length, expressed on the surface of CHO cells (human) (UniProt Q9NR61); experiment: cell-based or functional assay
[7] = biological target: Recombinant Human DLL4 (R&D Systems Cat#1506-D4/CF) (human) (UniProt Q9NR61); experiment: ECL Multispot (MSD), antigen spotted, Fab
[8] = biological target: rHuman HGF R/c-MET/Fc Chimera, CF (R&D Systems Cat#358-MT/CF) (human) (UniProt P08581); experiment: ECL Multispot (MSD), antigen spotted, Fab
[9] = biological target: rHuman Notch-1/Fc Chimera, CF (R&D Systems Cat#3647-TK) (human) (UniProt P46531); experiment: ECL Multispot (MSD), antigen spotted, Fab
[10] = biological target: rHuman IGF-1 sR, CF (R&D Systems Cat#391-GR) (human) (UniProt P08069); experiment: ECL Multispot (MSD), antigen spotted, Fab
[11] = biological target: rHuman Notch-1/Fc Chimera, CF (R&D Systems Cat#3647-TK) (human) (UniProt P46531); experiment: ECL multispot (MSD) binding assay, antigens spotted on plate, 20 nM Fab
[12] = biological target: rHuman HGF R/c-MET/Fc Chimera, CF (R&D Systems Cat#358-MT/CF) (human) (UniProt P08581); experiment: ECL multispot (MSD) binding assay, antigen spotted on plate, Fab 0.04 uM
[13] = biological target: rHuman CD44/Fc Chimera, CF (R&D Systems Cat#3660-CD) (human) (UniProt P16070); experiment: as above
[14] = biological target: rHuman Erythropoietin R/Fc Chimera, CF (R&D Systems Cat#963-ER) (human) (UniProt P19235); experiment: as above
[15] = biological target: rHuman IGF-1 sR, CF (R&D Systems Cat#391-GR) (human) (UniProt P08069); experiment: as above
[16] = biological target: rHuman Notch-1/Fc Chimera, CF (R&D Systems Cat#3647-TK) (human) (UniProt P46531); experiment: as above
[17] = biological target: rHuman Erythropoietin R/Fc Chimera, CF (R&D Systems Cat#963-ER) (human) (UniProt P19235); experiment: ECL multispot (MSD) binding assay, antigens spotted on plate, 20 nM Fab
[18] = biological target: rHuman EGF R/Fc Chimera, CF (R&D Systems Cat#344-ER) (human) (UniProt P00533); experiment: ECL (MSD) multispot binding assay, antigen spotted on plate, 20 nM Fab
[19] = biological target: rHuman ErbB2/Fc Chimera, CF (R&D Systems Cat#1129-ER) (human) (UniProt P04626); experiment: as above

Notch1 luciferase reporter luminescence, T98G reporter cells + CHO-DLL4, 0.8 nM Fab, replicate 1 [1]: 4740
Notch1 luciferase reporter luminescence, T98G reporter cells + CHO-DLL4, 0.8 nM Fab, replicate 2 [1]: 4890
Notch1 luciferase reporter luminescence, T98G reporter cells + CHO-DLL4, 0.8 nM Fab, replicate 3 [1]: 3820
Notch1 luciferase reporter luminescence, T98G reporter cells + CHO-DLL4, 0.8 nM Fab, replicate 4 [1]: 4080
Notch1 luciferase reporter luminescence, T98G reporter cells + CHO-DLL4, 4 nM Fab, replicate 1 [1]: 4840
Notch1 luciferase reporter luminescence, T98G reporter cells + CHO-DLL4, 4 nM Fab, replicate 2 [1]: 4880
Notch1 luciferase reporter luminescence, T98G reporter cells + CHO-DLL4, 4 nM Fab, replicate 3 [1]: 4250
Notch1 luciferase reporter luminescence, T98G reporter cells + CHO-DLL4, 4 nM Fab, replicate 4 [1]: 4670
Notch1 luciferase reporter luminescence, T98G reporter cells + CHO-DLL4, 20 nM Fab, replicate 1 [1]: 4380
Notch1 luciferase reporter luminescence, T98G reporter cells + CHO-DLL4, 20 nM Fab, replicate 2 [1]: 4480
Notch1 luciferase reporter luminescence, T98G reporter cells + CHO-DLL4, 20 nM Fab, replicate 3 [1]: 3960
Notch1 luciferase reporter luminescence, T98G reporter cells + CHO-DLL4, 20 nM Fab, replicate 4 [1]: 3990
Substance: Fab VH1-46_IGHD6-6*01_IGHJ1*01 S102A/S103P/S104F/H111F I51V/N52L/S54T/G56H & L6_IGKJ1*01 S28N/S30D/S31H S52L/A55S

ECL multispot signal (ratio to blank; column not labelled) [2]: 2.7
Substance: Fab VH3-23_IGHD2-21*01>3_IGHJ6*01 H100E/S108P/Y113G Y109G & V2-13_IGLJ2*01

ECL signal [3]: 513
ECL signal [4]: 788
ECL signal [5]: 921
Substance: Fab VH5-51_IGHD5-18*01>3_IGHJ4*01 G100K/G104T W33A & V3-4_IGLJ1*01

Notch1 luciferase reporter luminescence, T98G reporter cells + CHO-DLL4, 100 nM Fab, replicate 1 [6]: 2400
Notch1 luciferase reporter luminescence, T98G reporter cells + CHO-DLL4, 100 nM Fab, replicate 2 [6]: 2280
Notch1 luciferase reporter luminescence, T98G reporter cells + CHO-DLL4, 100 nM Fab, replicate 3 [6]: 2150
Notch1 luciferase reporter luminescence, T98G reporter cells + CHO-DLL4, 100 nM Fab, replicate 4 [6]: 2170
Substance: Fab VH1-46_IGHD6-6*01_IGHJ1*01 S102A/S103P/S104F/H111F I51V/N52L/S54T/G56H (APFF VLTH) & L6_IGKJ1*01 S28N/S30D/S31H S52L/A55S (NDH LS)

ECL signal/blank ratio [7]: 2.9
ECL signal/blank ratio [8]: 3.2
ECL signal/blank ratio [9]: 3
Substance: Fab VH3-23_IGHD3-10*01>3_IGHJ6*01 Y111R & O12_IGKJ1*01

ECL signal/blank ratio [7]: 3
ECL signal/blank ratio [8]: 3
ECL signal/blank ratio [10]: 2.5
ECL signal/blank ratio [9]: 2.8
Substance: Fab VH3-23_IGHD3-10*01>3_IGHJ6*01 Y110R & O12_IGKJ1*01

ECL multispot signal (ratio to blank; column not labelled) [11]: 2.5
Substance: Fab VH3-23_IGHD2-21*01>3_IGHJ6*01 H100E/S108P/Y113G Y110I & V2-13_IGLJ2*01

ECL signal [12]: 1120
ECL signal [13]: 678
ECL signal [14]: 684
ECL signal [15]: 927
ECL signal [16]: 715
Substance: Fab VH5-51_IGHD5-18*01>3_IGHJ4*01 G100K/G104T (H:KT) & V3-4_IGLJ1*01 S96A

ECL multispot signal (ratio to blank; column not labelled) [17]: 3.5
ECL multispot signal (ratio to blank; column not labelled) [11]: 2.3
Substance: Fab VH3-23_IGHD2-21*01>3_IGHJ6*01 H100E/S108P/Y113G Y110T & V2-13_IGLJ2*01

ECL multispot value [18]: 3.7
Substance: Fab VH3-23_IGHD2-21*01>3_IGHJ6*01 H100E/S108P/Y113G Y112R & V2-13_IGLJ2*01

ECL signal/blank ratio [18]: 2.9
ECL signal/blank ratio [19]: 3
Substance: Fab VH3-23_IGHD2-21*01>3_IGHJ6*01 H100E/S108P/Y113G/Y111H & V2-13_IGLJ2*01

ECL multispot value [19]: 3.5
Substance: Fab VH3-23_IGHD2-21*01>3_IGHJ6*01 H100E/S108P/Y113G Y114N & V2-13_IGLJ2*01

— patent US20120316071A1
